Experimental data: the supplement of paper PMC9170038

Test system: MS2 coat protein
Assay: apparent KD of MS2 coat protein; designed switch direction (-1 OFF switch, 1 ON switch): -1; higher = weaker reporter binding
How it was run: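 Transcription of designed RNA switches on Illumina chips was done by stalled E. coli RNA polymerase. SNAP-549-labelled MS2 coat protein was then titrated in doubling steps from 0.7 or 1.5 nM to 3 µM, with steps of 0.8–1.5 h at the lowest and 10–20 min at the highest concentration. The per-design median over clusters of curve-fitted normalised fluorescence is reported as apparent KD.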

[1] = Eterna round: R95, input ligand: microRNA oligo, concentration not stated
[2] = input ligand: microRNA oligo, concentration not stated
[3] = Eterna round: R95, input ligand: FMN 200 uM
[4] = Eterna round: R95, input ligand: none

| Sequence | apparent KD of MS2 coat protein [1] [nM] | apparent KD of MS2 coat protein (input ligand: FMN 200 uM) [nM] | apparent KD of MS2 coat protein [2] [nM] | apparent KD of MS2 coat protein (input ligand: none) [nM] | apparent KD of MS2 coat protein [3] [nM] | apparent KD of MS2 coat protein [4] [nM] |
| --- | --- | --- | --- | --- | --- | --- |
| AGGUGAGCCGUCAGGAUAUGCGUUCCGUAGGGUCAGCAGAAGGGACAUGAGGAUCACCCAUGUUUCGCACGUGG [Veraxedi] (puzzle: Brourd's mod of Exclusion 4) | 31 | – | – | – | – | – |
| AGGUGCCUCUGGAAACAUGAGGAUCACCCAUGUUGAGUUAGCGAGGAUAUCGGUAACCAUUGUUAUGAGAAGGCGCAAACCAGA [Ex NG3 #38] (Eterna round: R96, puzzle: Exclusion NG 3) | – | 60.7 | 19.6 | 27.6 | – | – |
| AGGUGGAAGCAGGAUAUGCUUGUAUAAUUGAUAGCAGAAGGGCUAACAUGAGGAUCACCCAUGUAAGAGGUGUA [JR_E6_Sub058] (puzzle: Exclusion 6) | 177 | – | – | – | 340 | 206 |
| AGGUGUAGAGGAUAUCUAUCCUCCCACAUGAGGAUCACCCAUGUCCUGGUCACCAAGGACGGAGAAGGCUACACCA [Omei Ex5 D19] (Eterna round: R97, puzzle: Exclusion 5) | – | 153 | – | 292 | – | – |
| AGGUGUAGAGGAUAUCUCUUCUCUCACAUGAGGAUCACCCAUGUCCUGGGCACCAAGGAGAGAGAAGGCUACACCA [Omei Ex5 D10] (Eterna round: R97, puzzle: Exclusion 5) | – | 72.7 | – | 271 | – | – |
| AGGUGUAGAGGAUAUCUCUUCUCUCACAUGAGGAUCACCCAUGUCCUGGUCACCAAGGAGAGAGAAGGCUACACCA [Omei Ex5 D9] (Eterna round: R97, puzzle: Exclusion 5) | – | 56.4 | – | 76.4 | – | – |
| AGGUGUAGAGGAUAUUCAUUCUUCCACAUGAGGAUCACCCAUGUCCCGGUCACCAGGGACGGAGAAGGCUACACCA [Omei Ex5 D26] (Eterna round: R97, puzzle: Exclusion 5) | – | 108 | – | 76.8 | – | – |
| AGGUGUCUCUGGAAACAUGAGGAUCACCCAUGUUGAGUUAGCGAGGAUAUCGGUAACCAUUGUUAUGAGAAGGCGCAAACCAGA [Ex NG3 #39] (Eterna round: R96, puzzle: Exclusion NG 3) | – | 14.8 | 18.3 | 25.4 | – | – |
| AGUAACAGAGGAUAUACUAUUUUAUGUGUUUAUUGUUUUGAACAUGAGGAUCACCCAUGUAGAAGGCUGAAUAA [JMF 95] (puzzle: Exclusion 2) | 24.5 | – | – | – | – | – |
| AGUAACAGAGGAUAUACUAUUUUAUGUGUUUGUUAUUUUAAACAUGAGGAUCACCCAUGUAGAAGGCUGAAUAA [JMF 84] (puzzle: Exclusion 2) | 21 | – | – | – | – | – |
| AGUAACAGAGGAUAUACUGUUUUAUGUGUUUGUUGUUUUAAACAUGAGGAUCACCCAUGUAGAAGGCUGAAUAA [JMF 87] (puzzle: Exclusion 2) | 18.8 | – | – | – | – | – |
| AGUAACCGUCACGAAAGUGAUGGUUACGCAAGCAAAUGUACAUGAGGAUCACCCAUGUCCUCAAUUGCUCGUCUUAU [Sensor 3 - 51] (puzzle: Sensor v3, turn-off variant 2) | 175 | – | – | – | 102 | 114 |
| AGUAACUAUCACGAAAGUGAUAGUUACAACAAGUGAUAAACAUGAGGAUCACCCAUGUCCUCAUUUGUUCGUCUUAU [Sensor 3 - 14] (puzzle: Sensor v3, turn-off variant 2) | 373 | – | – | – | 240 | 225 |
| AGUAACUAUCACGAAAGUGAUAGUUACACAAGUAGUGAAACAUGAGGAUCACCCAUGUCCUCAUUUGCUCGUCUUAU [Sensor 3 - 33] (puzzle: Sensor v3, turn-off variant 2) | 168 | – | – | – | 461 | 925 |
| AGUAACUAUCACGAAAGUGAUAGUUACACAAGUGUAAUAACAUGAGGAUCACCCAUGUCCUCAUUUGCUCGUCUUAU [Sensor 3 - 34] (puzzle: Sensor v3, turn-off variant 2) | 162 | – | – | – | 149 | 33.6 |
| AGUACUAACACGAAAGUGUUAGUAAAAUAAGCUUGUGGUACAUGAGGAUCACCCAUGUCCUCAUAAGCUCGUCUUAU [Mat - Sensor v3 - Turn-off var 2 - D42] (puzzle: Sensor v3, turn-off variant 2) | 78.8 | – | – | – | 21.6 | 20.6 |

| Sequence | apparent KD of MS2 coat protein [1] [nM] | apparent KD of MS2 coat protein (input ligand: FMN 200 uM) [nM] | apparent KD of MS2 coat protein [2] [nM] | apparent KD of MS2 coat protein (input ligand: none) [nM] | apparent KD of MS2 coat protein [3] [nM] | apparent KD of MS2 coat protein [4] [nM] |
| --- | --- | --- | --- | --- | --- | --- |
| AGUACUAACACGAAAGUGUUAGUACAACAAGCUUGUGAAACAUGAGGAUCACCCAUGUCCUCAUAAGCUCGUCUUAU [salish99_TOv2_r3_042] (puzzle: Sensor v3, turn-off variant 2) | 463 | – | – | – | 13.7 | 11.9 |
| AGUACUAACACGAAAGUGUUAGUACAAUAAGCUAGUGGAACAUGAGGAUCACCCAUGUCCUCAUUAGCUCGUCUUGG [Mat - Sensor v3 - Turn-off var 2 - D40] (puzzle: Sensor v3, turn-off variant 2) | 19.6 | – | – | – | 16.4 | 14.6 |
| AGUACUAACACGAAAGUGUUAGUACAAUAAGCUUGUGAAACAUGAGGAUCACCCAUGUCCUCAUUAGCUCGUCUUAU [salish99_TOv2_r3_050] (puzzle: Sensor v3, turn-off variant 2) | 451 | – | – | – | 184 | 172 |
| AGUACUAACACGAAAGUGUUAGUACAAUAAGCUUGUGCAACAUGAGGAUCACCCAUGUCCUCAUAAGCUCGUCUUAU [salish99_TOv2_r3_044] (puzzle: Sensor v3, turn-off variant 2) | 75.2 | – | – | – | 544 | 574 |
| AGUACUAACACGAAAGUGUUAGUACAAUAAGCUUGUGUUACAUGAGGAUCACCCAUGUCCUCAUAAGCUCGUCUUAA [Mat - Sensor v3 - Turn-off var 2 - D49] (puzzle: Sensor v3, turn-off variant 2) | 200 | – | – | – | 39.9 | 47.4 |
| AGUACUAACACGAAAGUGUUAGUACUAUAAGCUUGUGUAACAUGAGGAUCACCCAUGUCCUCAUAAGCUCGUCUUAU [Mat - Sensor v3 - Turn-off var 2 - D100] (puzzle: Sensor v3, turn-off variant 2) | 131 | – | – | – | 58.3 | 61.2 |
| AGUACUAACACGAAAGUGUUAGUCCAAUAAGCUUGUGAAACAUGAGGAUCACCCAUGUCCUCAUAAGCUCGUCUUAU [salish99_TOv2_r3_038] (puzzle: Sensor v3, turn-off variant 2) | 454 | – | – | – | 17.4 | – |
| AGUACUAACACGAUAGUGUUAGUACUAUAAGCUUGUGUUACAUGAGGAUCACCCAUGUCCUCAUAAGCUCGUCUUAA [Mat - Sensor v3 - Turn-off var 2 - D65] (puzzle: Sensor v3, turn-off variant 2) | 420 | – | – | – | 36.9 | 38.1 |
| AGUACUAACACGCGAGUGUUAGUACAAUAAGCUUGUGAAACAUGAGGAUCACCCAUGUCCUCAUAAGCUCGUCUUAU [salish99_TOv2_r3_059] (puzzle: Sensor v3, turn-off variant 2) | 674 | – | – | – | 16.7 | 14.5 |
| AGUACUAACACGCGUGUGUUAGUACAAUAAGCUUGUGAAACAUGAGGAUCACCCAUGUCCUCAUAAGCUCGUCUUAU [salish99_TOv2_r3_076] (puzzle: Sensor v3, turn-off variant 2) | 608 | – | – | – | 15.7 | 13.7 |
| AGUACUAACACGCUUGUGUUAGUACAAUAAGCUUGUGAAACAUGAGGAUCACCCAUGUCCUCAUAAGCUCGUCUUAU [salish99_TOv2_r3_072] (puzzle: Sensor v3, turn-off variant 2) | 654 | – | – | – | 17 | 15.9 |
| AGUACUAACACGGAAGUGUUAGUACAAUAAGCUUGUGUUACAUGAGGAUCACCCAUGUCCUCAUAAGCUCGUCUUAA [Mat - Sensor v3 - Turn-off var 2 - D62] (puzzle: Sensor v3, turn-off variant 2) | 487 | – | – | – | 48.4 | 40.2 |
| AGUACUAACACGGGAGUGUUAGUACAAUAAGCUUGUGAAACAUGAGGAUCACCCAUGUCCUCAUAAGCUCGUCUUAU [salish99_TOv2_r3_060] (Eterna round: R96, puzzle: Sensor v3, turn-off variant 2) | – | 14.5 | 436 | 17.4 | – | – |
| AGUACUAACACGGGAGUGUUAGUACAAUAAGCUUGUGAAACAUGAGGAUCACCCAUGUCCUCAUAAGCUCGUCUUAU [salish99_TOv2_r3_060] (puzzle: Sensor v3, turn-off variant 2) | 717 | – | – | – | 16.6 | 13.8 |
| AGUACUAACACGUAAGUGUUAGUACAAUAAGCUUGUGUUACAUGAGGAUCACCCAUGUCCUCAUAAGCUCGUCUUAU [Mat - Sensor v3 - Turn-off var 2 - D60] (puzzle: Sensor v3, turn-off variant 2) | 77.6 | – | – | – | 134 | 150 |
| AGUACUAACACGUUUGUGUUAGUACAAUAAGCUUGUGAAACAUGAGGAUCACCCAUGUCCUCAUAAGCUCGUCUUAU [salish99_TOv2_r3_069] (puzzle: Sensor v3, turn-off variant 2) | 567 | – | – | – | 17.4 | 16.3 |
